Drawing on publication doi:10.1101/2021.01.12.426394, this text covers IC50 for two molecules.

Test [1] concerns the target honeybee tachykinin-related peptide receptor, FLAG-TRPR expressed in Sf21 cells (Apis mellifera). The experiment in a line: competitive binding of a fluorescent ligand on cells.
The target in test [2] is honeybee tachykinin-related peptide receptor, FLAG-TRPR expressed in HEK293 cells (Apis mellifera). The test is described as above.

Where no end group is shown, it is not given here.

Broadly, the IC50 is the midpoint of a concentration-inhibition curve. High values mean weaker potency in that assay, low ones greater potency in that assay.

As for ALMGFQGVR-NH2 [tachykinin-related peptide 2 (TRP2), unlabeled], the IC50 in test [1] was found to be 8.76 nM; in test [2], 2.34 nM.
Taken in the same sequence, the figures for APMGFQGMR-NH2 [tachykinin-related peptide 3 (TRP3), unlabeled] were 34.9 nM and 6.29 nM.
